# Laboratory results as given in paper PMC10759225.
# Target: TAX peptide, a peptide of the human T-cell leukemia virus type I peptide on HLA-A2 (human)
# Assay: data from Cole et al. (2013); the method is not told in this article; the reference is the unmutated A6-TCR
substance,measurement,value
A6-TCR with mutated CDR3 beta loop (PDB 4FTV),fold enhancement of binding over the parent A6-TCR,1000 fold
